Reference: patent US20140072613A1 (published 2014)

T1: Fms(Y969C)(h) (human, UniProt P07333 538-972, limits assumed)
T1 sequence (looked up): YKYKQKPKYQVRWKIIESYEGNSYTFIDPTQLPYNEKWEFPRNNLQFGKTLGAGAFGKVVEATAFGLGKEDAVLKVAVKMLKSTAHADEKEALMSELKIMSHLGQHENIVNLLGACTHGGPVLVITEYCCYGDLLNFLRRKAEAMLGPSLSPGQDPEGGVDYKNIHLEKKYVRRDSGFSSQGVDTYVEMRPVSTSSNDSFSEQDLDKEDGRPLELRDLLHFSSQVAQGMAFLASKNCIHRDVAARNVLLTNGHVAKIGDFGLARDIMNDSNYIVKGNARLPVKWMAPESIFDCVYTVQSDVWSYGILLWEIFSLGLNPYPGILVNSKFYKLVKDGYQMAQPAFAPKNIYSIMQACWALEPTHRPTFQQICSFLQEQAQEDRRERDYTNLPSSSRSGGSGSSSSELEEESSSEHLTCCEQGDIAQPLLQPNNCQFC

T2: PKCε(h) (human, UniProt Q02156 1-737)
T2 sequence (looked up): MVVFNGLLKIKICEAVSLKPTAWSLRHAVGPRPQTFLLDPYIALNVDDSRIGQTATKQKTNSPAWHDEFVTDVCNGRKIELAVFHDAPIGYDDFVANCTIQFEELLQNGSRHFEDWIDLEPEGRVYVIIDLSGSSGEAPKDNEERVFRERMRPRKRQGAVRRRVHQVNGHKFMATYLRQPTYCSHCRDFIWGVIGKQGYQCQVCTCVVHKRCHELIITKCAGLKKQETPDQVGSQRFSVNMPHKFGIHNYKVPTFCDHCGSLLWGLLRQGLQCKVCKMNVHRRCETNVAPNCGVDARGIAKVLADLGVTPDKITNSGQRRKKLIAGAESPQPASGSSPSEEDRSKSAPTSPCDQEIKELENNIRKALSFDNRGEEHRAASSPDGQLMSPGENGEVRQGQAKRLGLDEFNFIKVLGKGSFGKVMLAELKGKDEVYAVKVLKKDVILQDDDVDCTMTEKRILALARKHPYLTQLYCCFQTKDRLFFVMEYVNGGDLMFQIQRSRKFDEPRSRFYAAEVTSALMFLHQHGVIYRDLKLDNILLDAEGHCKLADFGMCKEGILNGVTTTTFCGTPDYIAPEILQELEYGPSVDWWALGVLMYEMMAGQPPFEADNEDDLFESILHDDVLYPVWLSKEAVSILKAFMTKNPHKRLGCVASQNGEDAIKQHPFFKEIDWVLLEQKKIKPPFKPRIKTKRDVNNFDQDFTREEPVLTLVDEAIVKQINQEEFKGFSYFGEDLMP

T3: Flt3(D835Y)(h) (human, UniProt P36888 564-993, limits assumed)
T3 sequence (looked up): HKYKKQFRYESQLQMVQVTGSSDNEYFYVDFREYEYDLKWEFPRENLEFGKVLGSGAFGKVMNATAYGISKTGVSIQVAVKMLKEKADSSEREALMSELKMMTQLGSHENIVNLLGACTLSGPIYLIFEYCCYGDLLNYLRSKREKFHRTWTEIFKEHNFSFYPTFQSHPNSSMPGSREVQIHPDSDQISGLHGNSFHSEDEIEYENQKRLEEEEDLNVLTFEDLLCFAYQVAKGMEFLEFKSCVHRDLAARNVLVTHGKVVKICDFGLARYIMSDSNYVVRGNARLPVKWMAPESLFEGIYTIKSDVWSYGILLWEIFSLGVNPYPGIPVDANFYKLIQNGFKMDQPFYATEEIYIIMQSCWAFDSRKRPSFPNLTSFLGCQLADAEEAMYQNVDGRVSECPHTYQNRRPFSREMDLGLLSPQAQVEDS

T4: TAO2(h) (human, UniProt Q9UL54 1-314, limits assumed)
T4 sequence (looked up): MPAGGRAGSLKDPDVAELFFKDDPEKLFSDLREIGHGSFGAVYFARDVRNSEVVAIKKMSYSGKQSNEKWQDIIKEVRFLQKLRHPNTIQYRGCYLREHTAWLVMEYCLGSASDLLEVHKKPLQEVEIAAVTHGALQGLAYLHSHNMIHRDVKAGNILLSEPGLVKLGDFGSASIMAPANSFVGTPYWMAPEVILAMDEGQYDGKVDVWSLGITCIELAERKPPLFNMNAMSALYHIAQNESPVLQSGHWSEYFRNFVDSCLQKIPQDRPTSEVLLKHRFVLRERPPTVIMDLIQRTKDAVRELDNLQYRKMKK


How the values were obtained:
Experiment in all cases: cell-based or functional assay
CHK2(R145W)(h) = CHK2(R145W)(h) (human, UniProt O96017 5-543, limits assumed)
Chain of CHK2(R145W)(h) (O96017 5-543 R145W limits assumed): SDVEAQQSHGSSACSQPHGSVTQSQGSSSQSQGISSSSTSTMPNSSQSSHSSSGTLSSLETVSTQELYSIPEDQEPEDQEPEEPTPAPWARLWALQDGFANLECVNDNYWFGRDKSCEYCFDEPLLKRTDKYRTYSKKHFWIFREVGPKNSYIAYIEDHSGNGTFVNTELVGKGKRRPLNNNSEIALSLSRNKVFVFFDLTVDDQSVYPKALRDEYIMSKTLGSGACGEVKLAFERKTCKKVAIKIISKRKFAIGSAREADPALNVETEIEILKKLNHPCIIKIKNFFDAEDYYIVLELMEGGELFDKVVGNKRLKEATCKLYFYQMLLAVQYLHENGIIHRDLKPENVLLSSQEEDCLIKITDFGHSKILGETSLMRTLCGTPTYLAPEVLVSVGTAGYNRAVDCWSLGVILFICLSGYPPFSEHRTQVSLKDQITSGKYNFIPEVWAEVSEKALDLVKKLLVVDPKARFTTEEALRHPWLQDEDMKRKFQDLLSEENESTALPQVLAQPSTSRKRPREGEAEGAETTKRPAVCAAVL

RIPK2(h) = RIPK2(h) (human, UniProt O43353 1-299, limits assumed)
ALK(h) = ALK(h) (human, UniProt Q9UM73 1058-1620, limits assumed)
Chain of ALK(h) (Q9UM73 1058-1620 limits assumed): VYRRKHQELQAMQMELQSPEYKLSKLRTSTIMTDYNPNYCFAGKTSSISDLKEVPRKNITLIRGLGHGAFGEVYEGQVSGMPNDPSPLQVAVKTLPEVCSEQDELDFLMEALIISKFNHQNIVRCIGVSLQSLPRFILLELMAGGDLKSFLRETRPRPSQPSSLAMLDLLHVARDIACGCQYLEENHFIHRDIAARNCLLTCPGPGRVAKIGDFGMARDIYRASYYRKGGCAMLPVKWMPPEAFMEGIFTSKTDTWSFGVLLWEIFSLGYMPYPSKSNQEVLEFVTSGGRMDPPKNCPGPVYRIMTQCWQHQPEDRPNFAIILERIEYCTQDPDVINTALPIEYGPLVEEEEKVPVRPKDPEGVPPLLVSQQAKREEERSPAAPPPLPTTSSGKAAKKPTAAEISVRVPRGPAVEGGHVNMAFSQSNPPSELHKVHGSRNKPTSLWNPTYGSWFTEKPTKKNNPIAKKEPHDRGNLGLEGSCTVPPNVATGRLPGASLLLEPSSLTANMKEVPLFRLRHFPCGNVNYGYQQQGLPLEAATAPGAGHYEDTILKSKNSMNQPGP

Met(Y1248C)(h) = Met(Y1248C)(h) (human, UniProt P08581-2 974-1408, limits assumed)
Fms(Y969C)(h) = target: T1, Fms(Y969C)(h)
MLK1(h) = MLK1(h) (human, UniProt P80192 132-413, limits assumed)
Chain of MLK1(h) (P80192 132-413 limits assumed): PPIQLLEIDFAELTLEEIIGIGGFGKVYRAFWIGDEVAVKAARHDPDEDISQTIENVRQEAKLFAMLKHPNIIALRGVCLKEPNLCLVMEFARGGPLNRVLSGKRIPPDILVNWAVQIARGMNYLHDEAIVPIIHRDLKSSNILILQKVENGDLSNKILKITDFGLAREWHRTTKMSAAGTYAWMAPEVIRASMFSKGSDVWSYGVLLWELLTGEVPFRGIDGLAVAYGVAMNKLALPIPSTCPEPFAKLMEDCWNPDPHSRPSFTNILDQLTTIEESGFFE

MARK1(h) = MARK1(h) (human, UniProt Q9P0L2 1-795, limits assumed)
Chain of MARK1(h) (Q9P0L2 whole entry): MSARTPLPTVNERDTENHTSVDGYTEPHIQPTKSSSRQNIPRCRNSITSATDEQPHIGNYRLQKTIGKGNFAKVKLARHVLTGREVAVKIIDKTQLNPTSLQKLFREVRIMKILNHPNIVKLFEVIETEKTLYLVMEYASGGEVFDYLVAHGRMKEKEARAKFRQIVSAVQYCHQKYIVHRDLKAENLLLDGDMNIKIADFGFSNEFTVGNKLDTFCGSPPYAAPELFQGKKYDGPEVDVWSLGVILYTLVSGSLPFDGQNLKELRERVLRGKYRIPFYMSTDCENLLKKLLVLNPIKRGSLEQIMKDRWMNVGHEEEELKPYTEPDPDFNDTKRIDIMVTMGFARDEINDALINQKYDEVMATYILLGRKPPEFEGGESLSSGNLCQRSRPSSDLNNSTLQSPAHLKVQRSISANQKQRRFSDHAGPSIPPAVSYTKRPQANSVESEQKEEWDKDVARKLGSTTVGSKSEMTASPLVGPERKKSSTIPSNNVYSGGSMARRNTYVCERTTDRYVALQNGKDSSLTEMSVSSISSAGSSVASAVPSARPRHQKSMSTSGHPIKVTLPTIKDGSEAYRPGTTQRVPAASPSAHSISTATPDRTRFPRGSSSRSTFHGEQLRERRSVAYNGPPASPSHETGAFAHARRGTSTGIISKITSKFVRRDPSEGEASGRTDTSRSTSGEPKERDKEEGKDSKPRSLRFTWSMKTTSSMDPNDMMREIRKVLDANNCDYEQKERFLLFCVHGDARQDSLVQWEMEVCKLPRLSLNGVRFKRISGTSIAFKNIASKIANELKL

FGFR2(h) = FGFR2(h) (human, UniProt P21802 456-770, limits assumed)
ErbB4(h) = ErbB4(h) (human, UniProt Q15303 706-991, limits assumed)
Chain of ErbB4(h) (Q15303 706-991 limits assumed): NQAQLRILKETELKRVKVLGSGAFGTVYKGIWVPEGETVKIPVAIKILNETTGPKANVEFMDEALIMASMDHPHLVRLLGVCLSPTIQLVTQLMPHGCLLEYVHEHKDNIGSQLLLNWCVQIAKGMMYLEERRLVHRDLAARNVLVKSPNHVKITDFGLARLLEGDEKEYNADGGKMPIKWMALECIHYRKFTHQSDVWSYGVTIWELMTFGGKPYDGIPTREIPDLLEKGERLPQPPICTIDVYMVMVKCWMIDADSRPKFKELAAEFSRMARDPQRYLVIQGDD

PDGFRα(V561D)(h) = PDGFRα(V561D)(h) (human, UniProt P16234 550-1089, limits assumed)
Chain of PDGFRα(V561D)(h) (P16234 550-1089 V561D limits assumed): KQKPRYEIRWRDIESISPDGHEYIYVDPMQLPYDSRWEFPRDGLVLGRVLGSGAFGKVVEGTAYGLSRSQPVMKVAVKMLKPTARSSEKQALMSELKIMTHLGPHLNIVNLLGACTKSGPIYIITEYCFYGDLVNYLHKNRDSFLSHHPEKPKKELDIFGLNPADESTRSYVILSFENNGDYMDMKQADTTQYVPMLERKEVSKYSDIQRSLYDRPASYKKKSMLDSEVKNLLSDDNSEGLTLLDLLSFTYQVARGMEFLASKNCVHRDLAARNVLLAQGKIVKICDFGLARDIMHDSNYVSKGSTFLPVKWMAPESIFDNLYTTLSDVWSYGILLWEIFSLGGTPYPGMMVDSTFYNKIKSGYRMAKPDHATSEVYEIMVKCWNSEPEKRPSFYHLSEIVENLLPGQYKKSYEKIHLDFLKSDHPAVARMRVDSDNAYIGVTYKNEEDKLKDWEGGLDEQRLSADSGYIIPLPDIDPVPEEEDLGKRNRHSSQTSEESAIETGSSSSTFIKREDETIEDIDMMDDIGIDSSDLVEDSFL

Fyn(h) = Fyn(h) (human, UniProt P06241 1-537)
Chain of Fyn(h) (P06241 whole entry): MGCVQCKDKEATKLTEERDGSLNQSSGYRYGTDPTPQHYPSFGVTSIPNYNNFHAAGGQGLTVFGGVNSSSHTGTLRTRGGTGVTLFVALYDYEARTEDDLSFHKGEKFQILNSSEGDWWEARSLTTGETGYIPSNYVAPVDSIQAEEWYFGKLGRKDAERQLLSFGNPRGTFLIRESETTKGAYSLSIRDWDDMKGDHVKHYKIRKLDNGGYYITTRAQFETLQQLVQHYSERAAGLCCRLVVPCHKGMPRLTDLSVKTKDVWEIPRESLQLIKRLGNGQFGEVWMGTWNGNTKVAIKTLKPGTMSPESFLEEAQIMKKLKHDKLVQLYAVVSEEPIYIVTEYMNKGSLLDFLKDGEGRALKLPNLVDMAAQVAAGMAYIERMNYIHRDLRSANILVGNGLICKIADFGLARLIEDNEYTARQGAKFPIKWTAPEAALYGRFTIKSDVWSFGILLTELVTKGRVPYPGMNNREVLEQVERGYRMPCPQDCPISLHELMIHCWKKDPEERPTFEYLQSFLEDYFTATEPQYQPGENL

Rsk1(h) = Rsk1(h) (human, UniProt Q15418 1-735)
Chain of Rsk1(h) (Q15418 whole entry): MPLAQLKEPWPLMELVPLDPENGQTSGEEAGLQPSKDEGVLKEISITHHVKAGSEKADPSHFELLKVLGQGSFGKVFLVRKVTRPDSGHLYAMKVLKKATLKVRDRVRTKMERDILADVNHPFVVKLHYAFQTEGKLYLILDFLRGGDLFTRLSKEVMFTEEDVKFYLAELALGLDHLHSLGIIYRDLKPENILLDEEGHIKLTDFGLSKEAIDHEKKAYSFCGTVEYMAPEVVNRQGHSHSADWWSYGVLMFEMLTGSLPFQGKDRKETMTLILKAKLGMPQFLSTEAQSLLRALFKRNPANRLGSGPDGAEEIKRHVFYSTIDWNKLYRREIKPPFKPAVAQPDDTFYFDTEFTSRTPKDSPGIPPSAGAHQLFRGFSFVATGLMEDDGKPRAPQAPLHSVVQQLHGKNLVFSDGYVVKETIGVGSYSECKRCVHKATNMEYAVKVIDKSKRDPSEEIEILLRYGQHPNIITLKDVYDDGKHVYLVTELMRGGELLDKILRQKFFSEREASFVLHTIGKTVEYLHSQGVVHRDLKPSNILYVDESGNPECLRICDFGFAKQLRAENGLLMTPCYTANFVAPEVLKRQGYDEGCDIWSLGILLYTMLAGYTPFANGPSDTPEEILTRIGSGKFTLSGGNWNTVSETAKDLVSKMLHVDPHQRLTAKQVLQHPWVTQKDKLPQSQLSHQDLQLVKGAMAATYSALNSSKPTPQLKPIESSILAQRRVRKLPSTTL

BTK(h) = BTK(h) (human, UniProt Q06187 1-659)
Chain of BTK(h) (Q06187 whole entry): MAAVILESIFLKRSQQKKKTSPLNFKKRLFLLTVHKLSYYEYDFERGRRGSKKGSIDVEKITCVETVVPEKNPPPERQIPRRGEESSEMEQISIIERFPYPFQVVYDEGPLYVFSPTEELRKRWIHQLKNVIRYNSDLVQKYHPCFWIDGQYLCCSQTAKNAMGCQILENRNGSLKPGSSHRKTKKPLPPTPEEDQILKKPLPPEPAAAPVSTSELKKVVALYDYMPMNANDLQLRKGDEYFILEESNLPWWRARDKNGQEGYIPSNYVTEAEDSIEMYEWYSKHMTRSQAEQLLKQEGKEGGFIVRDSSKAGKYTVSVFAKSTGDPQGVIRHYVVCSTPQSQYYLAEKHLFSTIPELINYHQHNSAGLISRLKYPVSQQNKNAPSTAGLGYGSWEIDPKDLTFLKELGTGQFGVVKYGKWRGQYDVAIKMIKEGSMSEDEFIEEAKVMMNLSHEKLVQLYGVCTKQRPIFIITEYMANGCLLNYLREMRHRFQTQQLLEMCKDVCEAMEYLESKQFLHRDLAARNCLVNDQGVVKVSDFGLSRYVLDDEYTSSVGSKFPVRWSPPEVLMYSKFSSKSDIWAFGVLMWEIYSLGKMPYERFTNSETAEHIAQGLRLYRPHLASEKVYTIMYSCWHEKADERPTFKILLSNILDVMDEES

PKCε(h) = target: T2, PKCε(h)
Flt3(D835Y)(h) = target: T3, Flt3(D835Y)(h)
CDK2/cyclinE(h) = CDK2/cyclinE(h) (human, UniProt P24941 1-298; P24864 1-410)
TAO2(h) = target: T4, TAO2(h)

| Binder | % activity, 100 µM (CHK2(R145W)(h)) [%] | % activity, 100 µM (RIPK2(h)) [%] | % activity, 100 µM (ALK(h)) [%] | % activity, 100 µM (Met(Y1248C)(h)) [%] | % activity, 100 µM (Fms(Y969C)(h)) [%] | % activity, 100 µM (MLK1(h)) [%] | % activity, 100 µM (MARK1(h)) [%] | % activity, 100 µM (FGFR2(h)) [%] | % activity, 100 µM (ErbB4(h)) [%] | % activity, 100 µM (PDGFRα(V561D)(h)) [%] | % activity, 100 µM (Fyn(h)) [%] | % activity, 100 µM (Rsk1(h)) [%] | % activity, 100 µM (BTK(h)) [%] | % activity, 100 µM (PKCε(h)) [%] | % activity, 100 µM (Flt3(D835Y)(h)) [%] | % activity, 100 µM (CDK2/cyclinE(h)) [%] | % activity, 100 µM (TAO2(h)) [%] |
| --- | --- | --- | --- | --- | --- | --- | --- | --- | --- | --- | --- | --- | --- | --- | --- | --- | --- |
| KAFAKLAARLYRKALARQLGVAA [MMI-0400] | 31 | 98 | 16 | 36 | 91 | 33 | 120 | 18 | 0 | 100 | 54 | 54 | 94 | 59 | 71 | 83 | 74 |
| FAKLAARLYRKALARQLGVAA [MMI-0300] | 33 | 97 | 19 | 84 | 72 | 40 | 132 | 14 | 40 | 82 | 74 | 46 | 102 | 79 | 80 | 94 | 70 |
